For 2 substances, Kd results are on record in publication PMC5768779.

This data set deals with USP48 (isoform 1). Briefly: EMSA. To be noted: 50 nM NCP, estimated from first distinct shift, higher species above 4 uM, EMSA: 50 nM NCP, native gel, SPR: immobilized nucleosomes, 10 successive USP48 injections, one-phase binding fit, binding buffer, pH and temperature not in ….

For the substance “NCP H2A-BRCA1ub (multi-monoubiquitinated, Widom 601, 147 bp)”, the Kd (histone H2A multi-monoubiquitinated at the C-terminal BRCA1 site (K125/K127/K129), DNA unmodified) is 1 µM.
In the case of NCP unmodified (Widom 601, 147 bp), the Kd was 1 µM.

As usually defined, the Kd is the equilibrium constant for the complex coming apart.
